Laboratory results as given in PMC10580936.
Residue numbers refer to the chain shown, from its start.

Assays:
[1] = test system: T1, His-FepR wt (Listeria monocytogenes EGD-e), ORF:2866136e; assay: EMSA; details: […] (25 mM Tris, pH 5.5), 0.15 mM BSA, 2.5 mM EDTA, 10% glycerol, 20 mM DTT, 5 min at 25 C
T1 sequence: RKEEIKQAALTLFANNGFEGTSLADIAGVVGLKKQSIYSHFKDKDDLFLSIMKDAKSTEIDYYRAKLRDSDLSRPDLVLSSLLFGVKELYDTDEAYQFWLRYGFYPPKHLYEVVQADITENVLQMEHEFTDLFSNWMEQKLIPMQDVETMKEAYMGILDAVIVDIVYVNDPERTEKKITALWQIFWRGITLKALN

[2] = test system: T2, His-FepR L24F L23F (Listeria monocytogenes EGD-e), ORF:2866136e; assay: EMSA; details: […] (25 mM Tris, pH 5.5), 0.15 mM BSA, 2.5 mM EDTA, 10% glycerol, 20 mM DTT, 5 min at 25 C
T2 sequence: T1 sequence with L23F

Row | Sequence | binding [1] | binding [2]
1 | CATTCCACTCCTCTCACAAAAACTGACGAACGTTCGTAAGTCATTTTCTCATGAAAAAAATTCTTTGTCAACAAAAAAATCCACTCTTTTAAAAGAGTGGATTCATGGATTTATTTTTCTTCTAAAAATTCGCTAATCAATTCGTATGTC (double strand) [PfepR G-27T] | no binding | –
2 | CATTCCACTCCTCTCACAAAAACTGACGACCGTTCGTAAGTCATTTTCTCATGAAAAAAATTCTTTGTCAACAAAAAAATCCACTCTTTTAAAAGAGTGGATTCATGGATTTATTTTTCTTCTAAAAATTCGCTAATCAATTCGTATGTC (double strand) [PfepR wt] | binds | no binding
